# Experimental data reported in patent publication US11156615B2 (priority 2015, dated 2021).
# Substitutions are numbered along the chain they refer to. In names and notes the source's numbering stands.
# B1: ttGGBP182C.2.0⋅Acrylodan: Acrylodan conjugate of ttGGBP W182C with Q148E+R91K double mutation (SEQ ID NO: 88) (conjugate)
# chain: MKQLNIGVAIYKFDDTFMTGVRNAMTAEAQGKAKLNMVDSQNSQPTQNDQVDLFITKKMNALAINPVDRTAAGTIIDKAKQANIPVVFFNKEPLPEDMKKWDKVYYVGAKAEQSGILQGQIMADYWKAHPEADKNHDGVMQYVMLMGEPGHQDAILRTQYSIQTVKDAGIKVQELAKDYANCDRVTAHDKMAAWLSSFGDKIEAVFANNDDMALGAIEALKSAGYFTGNKYIPVVGVDATAPGIQAIKDGTLLGTVLNDAKNQAKATFNIAYELAQGITPTKDNIGYDITDGKYVWIPYKKITKDNISDAEQGGSHHHHHH
# modifications: Acrylodan conjugate; ttGGBP182C.2.0 (affinity-tuning mutant, 182C background (Table 6) with signal peptide replaced with M and GGSHHHHHH at C-terminus)
# B2: ttGGBP182C: ttGGBP cys mutant, SEQ ID NO: 61 (protein)
# chain: B1 chain with K91R, E148Q
# modifications: ttGGBP182C (ttGGBP cys mutant with signal peptide replaced with M and GGSHHHHHH at C-terminus)
# B3: ttGGBP182C.2.4: affinity-tuning mutant, 182C background, SEQ ID NO: 91 (protein)
# chain: B1 chain with A154M
# modifications: ttGGBP182C.2.4 (affinity-tuning mutant, 182C background (Table 6) with signal peptide replaced with M and GGSHHHHHH at C-terminus)
# B4: ttGGBP182C.2.8: affinity-tuning mutant, 182C background, SEQ ID NO: 95 (protein)
# chain: B1 chain with D15N
# modifications: ttGGBP182C.2.8 (affinity-tuning mutant, 182C background (Table 6) with signal peptide replaced with M and GGSHHHHHH at C-terminus)
# B5: ttGGBP182C.2.7: affinity-tuning mutant, 182C background, SEQ ID NO: 94 (protein)
# chain: B1 chain with H151F
# modifications: ttGGBP182C.2.7 (affinity-tuning mutant, 182C background (Table 6) with signal peptide replaced with M and GGSHHHHHH at C-terminus)
# B6: ttGGBP182C.2.9: affinity-tuning mutant, 182C background, SEQ ID NO: 96 (protein)
# chain: B1 chain with A154F
# modifications: ttGGBP182C.2.9 (affinity-tuning mutant, 182C background (Table 6) with signal peptide replaced with M and GGSHHHHHH at C-terminus)
# How the values were obtained:
# [1] = Thermostability: mid-point thermal denaturation temperature (Tm) from temperature-dependent fluorescence (Roche LightCycler); format: physicochemical; details: for apoTm: Acrylodan conjugate, apo-protein
# Source text: Protein (un)folding is monitored by binding of SYPRO to the unfolded state as a function of temperature. Fluorescence intensity increases upon binding of SYPRO by the unfolded state.
# Panels A-C: ttGBP182C.2.0-Imm0; Panels D-F: ttGBP182C.2.0-Imm1 (see FIG. 13). (A) Solution (Tm=347.6K). (B) Immobilized on Nickel-nitriloacetic acid (Ni-NTA) beads (Tm=346.7K). (C) Reconstituted, desiccated Ni-NTA beads (Tm=347.6K). (D) Fluorescence response of ttGGBP5.2 Imm1 immobilized on NHS-functionalized agarose beads. Data was collected on a Roche LightCycler real-time PCS instrument, recording emission intensities at 488 nm and 510 nm as a function of temperature in a 384-well microtiter plate. […] Temperature melts of twelve different wells. Apo protein thermostability as reported by the denaturation mid-point temperature is 349 K, similar to the protein free in solution. […] (F) Representative Langmuir ligand-binding curve extracted from the three-dimensional data.
# Temperatures were advanced in 1K steps. […] Under these experimental photobleaching was not observed.
# [2] = Glucose binding: isothermal fluorescence titrations, ratiometric (appKd) and monochromatic (trueKd) fits; details: for Kd: glucose
# Source text: 2 For a single glucose-binding site, the fractional saturation is given by
# [formula] where ^apoIλ2 and ^satIλ2 are the emission intensities of the monochromatic signal at wavelength λ2 of the ligand-free and ligand-bound protein, respectively.
# [3] = Galactose binding: isothermal fluorescence titrations of conjugates; details: Acrylodan conjugate; for Kd: read-out: Galactose trueKd, monochromatic titration curves, room temperature
molecule,measurement,setting,value
"ecGGBP: glucose-galactose binding protein from Escherichia coli, SEQ ID NO: 1 [reference compound]",mid-point thermal denaturation temperature (Tm),[1]; GGBP homologs,322 K
B1,Kd,"[2]; fit of ratiometric emission signal (figure legends), read-out: appKd",4.5 mM
same,Kd,"[2]; monochromatic fits at 475 nm and 545 nm (FIG. 11), read-out: trueKd",6 mM
same,decrease in glucose affinity,[2]; in ttGGBP182C⋅Acrylodan,2.6 fold
B2,apoTm,[1],347 K
same,Kd,[3],3.3 mM
B3,apoTm,[1],346 K
same,Kd,[3],4.5 mM
B4,apoTm,[1],343 K
same,"S, selectivity = trueKd(galactose)/trueKd(glucose)","[3]; S > 1, selective for glucose",1.8
B5,apoTm,[1],346 K
B6,apoTm,[1],345 K
